Results published in the RNAGym collection of RNA variant scans (doi:10.1073/pnas.2313332121).
For some assays here: Fewer inactive variants are shown than the library holds.

B1: TPR 5TU (parent)
chain: GGAUCUUCUCGAUCUAACAAAAAAGACAAAUCUGCCACAAAGCUUGAGAGCAUCUUCGGAUGCAGAGGCGGCAGCCUUCGGUGGCGCGAUAGCGCCAACGUUCUCAACUAUGACACGCAAAACGCGUGCUCCGUUGAAUGGAGUUUAUCAUG
B2: TPR t1 (parent)
chain: GACCAAUCUGCCCUCAGAGCUCGAGAACAUCUUCGGAUGCAGAGGAGGCAGGCUUCGGUGGCGCGAUAGCGCCAACGUCCUCAACCUCCAAUGCAUCCCACCACAUGAUGAUGCCUGAAGAGCCUUGGUUUUUUG

Variants of: B1
Assay: polymerase ribozyme fitness, log enrichment relative to wild type (log ratio); higher = more active; in vitro selection for triplet polymerase activity
In short: (§1)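 Fitness is a logarithmic measure of how a genotype enriched relative to the wild type, with replicate averages weighted by inverse variance. The logarithm uses base 2, and enrichment came from Illumina sequencing of input and output libraries. Those libraries were PCR-built, transcribed mutants of each subunit of a heterodimeric triplet polymerase ribozyme, passed through one triplicate in vitro selection round that included frozen incubation at −7 °C, gel excision of extended constructs and streptavidin-bead capture. Genotypes were kept only if they had ≥10 input reads and ≥1 read per output.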

Variant	polymerase ribozyme fitness (log ratio)
A3C U45A G59U G92U	≤ -4.2
A3U A37C G84U	-2.36
A3U C85G C125A U144A	-3.46
A3C	-0.142
A3G	-0.234
A3U	-0.0169
A3U A39G G58C C96U	-3.39
A3G C5G U7A G50U G86A C93U C96U	-0.354
A3G G11A C14A C95G C96A C103G	≤ -4.2
A3G A17U G34A C118G U146A C149A	≤ -4.2
A3C U6G A60G G83C	-3.62
A3U A37U G42C C57U C95A A120G	≤ -4.2
A3G C54A C95U	-2.06
A3G C96A A98U U102C	-2.26
A3U A16G C36A G92C G124C C131A G136U	≤ -4.2
A3U A147C	-0.51
A3C U13C C51U C57U C87U C96G U139C	≤ -4.2
A3U C72U C79G G92U	≤ -4.2
A3U C5A C35U C87A	≤ -4.2
A3C C10A U82C	-2.75
A3G C57A C87A	≤ -4.2
A3C G11C C76U C93A	-3.68
A3G G50A	-1.39

Variant	polymerase ribozyme fitness (log ratio)
A3U C76A	-1.8
A3G C85A	-1.17
A3G G94A C114U	-2.39
A3U A20C C54U G86C C125U	-4.19
A3G C72U C85U U146C	-0.724
A3C A23U G50C U55A C105U C116U C125U	≤ -4.2
A3C U56A C69U A91U	≤ -4.2
A3G U13G A23C C43A C87U	≤ -4.2
A3C A16U A26U U55A	≤ -4.2
A3G A19U C27A U82A C93G U111G	≤ -4.2
A3C C5G C14G A24G A29U C32A U56G G86C U90G C116G A142C	≤ -4.2
A3G C96U	-0.935
A3C C85A	-2.55
A3U A30C C36A A60U G84A C85A G140C U146C	≤ -4.2
A3U A73G C79G C93A C116U G117U A138U	≤ -4.2
A3G C51G U56A G92U C118U U145C	≤ -4.2
A3U A24U A52U A60G G92U	-2.23
A3U A20C U31G C36A	≤ -4.2
A3G G42C C69G C85G C118U C129U	≤ -4.2
A3U A21G C76G G86U A121U	≤ -4.2
A3C U13C A28G C79G G80C G94A G141C	-4.17
A3G U6A U33G G50A C79U C129A	≤ -4.2
A3G G42A A49C C63U C69G C85G A115C	≤ -4.2

Variant	polymerase ribozyme fitness (log ratio)
A3G A37C G80U	-3.88
A3C U31G U53A U55A C96A A115G G126A A142C	≤ -4.2
A3U C5U C35G A37G G86U A89G U104C C125G C131G	≤ -4.2
A3C U31G C57G	-1.39
A3U A89C C95A A110C	≤ -4.2
A3U C18G A21U C57U C85U G94A A121U	-1.04
A3G U6A A40G C87A	≤ -4.2
A3C U15A C85U	0.611
A3U C35U U77C G84C A89G C118U	≤ -4.2
A3U C57U C85A C118U C125A	-2.55
A3G A16C A22G A73G G84U C123U G141U	≤ -4.2
A3G C57A U90A A91C C93U G94C C132U G140U A142U	≤ -4.2
A3U A30U G34U G58A C87G C95U C131G	≤ -4.2
A3G G83U	-0.444
A3U A16C U45A C75A U82G G84A C118U	≤ -4.2
A3C A20G C85A	-2.54
A3G C35U C96A A106C A138C A142G	≤ -4.2
A3G G94U U104C C129U U134A	≤ -4.2
A3G A39U G83U G84U C114U A119G	≤ -4.2
A3U A41G C85U G126U U144A	-1.79
A3C A19U C57G G94A G141A	-2.02
A3U A37G G59U G86A C99A U130C G141U	≤ -4.2
A3G A19G A28U C99U U130G	≤ -4.2

Variant	polymerase ribozyme fitness (log ratio)
A3U A30G A49C	≤ -4.2
A3G C27A G88C A122C A138U	≤ -4.2
A3C A19G A21U U45A U82C G92C U139G U144A	≤ -4.2
A3U A30G A52U C79G G88U C95U A115G A120C G133U	-4.13
A3U A30G G86C C96U	-4
A3G A26C A60G	-2.26
A3G A21C A37C C63U G74C C87G G128C G141A	≤ -4.2
A3U A28U C57U C75G	≤ -4.2
A3U A29C G68C A73G	≤ -4.2
A3G A22C	-0.593
A3G U6C A64U G70C G86A U90G C93U G133C C149U	≤ -4.2
A3C C5A G11A U45A U55A G80A C96A	≤ -4.2
A3U C27G C95U A150G	≤ -4.2
A3U A52C C75U G92U C103G U134G	≤ -4.2
A3G A20G	-0.654
A3G G11C G34C A41G C87A	-4.04
A3C U9A A73U U144A C149G	≤ -4.2
A3U C5A A19U G50A C57U	-3.13
A3G C8G A28G G46U G50A G67C G92C A107U U151G	≤ -4.2
A3U C5U C87U C96G C131A	≤ -4.2
A3C A37G A91C A138C G140U	≤ -4.2
A3C G34C C43U A91G	≤ -4.2
A3C C5G G92U U134C U135A	-1.39

Variant	polymerase ribozyme fitness (log ratio)
A3G C51G A52C G84U U101G A107G	≤ -4.2
A3G U56A C96A U134A	-3.26
A3C U9G U33G A49U G74U U77G C93G U104A	≤ -4.2
A3G A22G A24C A49U C76A C131G	≤ -4.2
A3C C18G A30G C116G	≤ -4.2
A3C G11U C36G A39U A91U C114U U127G U134G G140C	≤ -4.2
A3U A26U G42C G58U C87A C125U C131G C132G	≤ -4.2
A3U A16U C38U G65C G88A	≤ -4.2
A3G A12G A52G G84A C116G	-1.71
A3U C5G A29U U31C A41C U55A U56C G84A C87U U111G U135A	≤ -4.2
A3G U53A C54U C95U	-1.48
A3U A41C C95U C99G C118A G136A U144G	-3.81
A3U C10U U15C	-1.19
A3C G83A G136C	-3.35
A3U C27U G81A C96A	-3.11
A3G U55A C93A	-3.2
A3G C8G C35A U90G C95U C116G G152A	-4.12
A3C U33C U44A U56G C85G	≤ -4.2
A3C C8U C27U G68A C87U A91C C93G	≤ -4.2
A3G C18G G83C U144C	-2.47
A3U A47C	-0.9
A3C C14G C103G A119G	≤ -4.2
A3C A37U A40C U44A C132A	≤ -4.2

Variant	polymerase ribozyme fitness (log ratio)
A3C A29U A91U	≤ -4.2
A3G A16U C18U A22C G25C C43U A49C G68C A106C U145C	≤ -4.2
A3U C54U U56A C95U C123U A150C G152U	-3.58
A3G U9G C51U G67C G81C A89G A97G	≤ -4.2
A3U C18G A22G G94C C131U	≤ -4.2
A3U C85U	-0.254
A3G A19U G92U A113C	-3.43
A3U C10U G25C A52G G88C A97U G100C U144G	≤ -4.2
A3C A22U G86A G92U	-2.91
A3U A17C C35U G59A C85A	-3.22
A3U C57A G71A A91G	≤ -4.2
A3U C5G A21U A30G C93A U148A	≤ -4.2
A3U C27U A49C G88C C96A C125G A142C	≤ -4.2
A3U C8G C51A A89G U90G A120U G133C	≤ -4.2
A3C C93G	≤ -4.2
A3G A23C A26G U45A A52G G59A G80C A106C	≤ -4.2
A3U A16U C93U U102C	-4.1
A3C A29C A37U C57U C87U A142G U148C	≤ -4.2
A3G A39C	-3.26
A3U A12G U13G A19C G143U	-2.98
A3U C32U G59A G83C C129U A137C	≤ -4.2
A3C C5A A20U C57A G62C U78G	≤ -4.2
A3U C32A U45G G50C U53A A60G G94A A98G G141U	≤ -4.2

Variants of: B2
Assay: as above
In short: as §1

Variant	polymerase ribozyme fitness (log ratio)
C8A G51U U59A A83U C85G U106A	-6.35
C12G A43U C70G C124G	-4.85
C73U U130C	0.504
G19A A43U C53U C56A G71C	-5.18
G36U G44A C104A	-4.47
G44A A66U C76A	-4.64
C8G A41G U78G G122U	-0.0287
G61A C94U	-0.0774
C4U A75G C76A G77U	-2.12
C11U A27G C86U C115U	-7.32
C8G C34U	-3.12
C8A G44U	-0.208
U14C C20U G58U C62G	-5.26
G60A A95G	-0.00276
G48C C73A U112A G120C	-0.954
C13U G47C	-1.18
C12G C64U U133A	-0.644
G77C U130G	-1.48
G19C C94A U130C	-2.66
C4U C64A C124U	-5.08
G61A A74C G128C	-5.31
C11G U78C C82U G117A	-0.181
G17U A83G	-2.64
U21A C56U C62U C85G	-3.76
G71A U81G A83U	-6.59
G47U G110C	-5.49
G69A C114A A121G U130G	-4.38
A6U C8U	0.736
C72G C98A C101U G110U G120U C123G U130G	-6.41
